Data: the domain aggregation screens of Martell et al. (2025)

Assay: soluble fraction after stress (log2 fold change); higher = more stays soluble; pooled small domains, quantitative proteomics
Settings: stress: 75 degC
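Also: 20 min heating vs room temperature control held 20 min.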

Row | Sequence | soluble fraction (log2)
1 | HMEDAFLQRLISIIEANLSNVDFNVKMLAEQLNMSQPTLYRKVKQRSELSVIDMIRSIRILSLIHISEPTR | -1.07
2 | HMEDDRLIQNLLLTAKNLVMDVGRMDESALAENEDTVRTAMLFALGYLYENRSNPDYHKLTLNLRSILFA | -0.38
3 | HMEDEISLGAINVPRGSVIVTAGGARLVEGSDYTVDYYSGTVKILNKSLLDAGTPINVSLET | -0.0249
4 | HMEDETAKVLRLLAENNGYLPYNDKSDPTDIYAFFGMSKKAFKMTTGNLYKQKKIQFTQTGIQLIE | -1.77
5 | HMEDEVSSSAAYQALLEKGVSKTLARSWVIDYGEAYVLDKVDLTTSQAARGKIKSSTAGFLKAAIEEDFHN | -0.0992
6 | HMEDGEALARAVASLPGKYREVLFLKYSHGYSVDEIALILSMSKENVKKTIQRARKKLEQLLESE | -1.3
7 | HMEDGEVTVPDLRGLTIKEAGTILEKLGLHLSPVGTGLAVRQDVAPGSKVARDTTITVEFEPPDIQVLR | 0.374
8 | HMEDIKHVVANNIKKYRKEERLTLQQLSYLTGVSKTMLNQIETEKSSPSITILWRISSGLKIPLSKLISSP | -1.58
9 | HMEDIPENIRYKFLLKELKENEHLNILDKENIARKLTEIDLPELEKELLENEILNSTIKDYLGIKLV | 0.494
10 | HMEDKFEYQGELKSLIEPTSFSELVSALNVRDTLQAIIDFAMREEDTSGYEELKVRQNDYIQEYLNSIGNF | -0.761
11 | HMEDKFEYQGERKSLIYPTSFSELTEALGVRNMLQSIIDFATRDEDTSGYEEMKERQNEYIQEYL | -0.0262
12 | HMEDKKQVLYELITDKSYRPLRFKELAVLLMVPKALRGELKQTLDELIKEGKITVDSSSRYRAA | 0.599
13 | HMEDLDKIISAYLDENPQIVSDYGKGNKKAVNSAIGFVMKSTGGKYSSSDIVDAVRSMIVSISV | -0.667
14 | HMEDNYYENKINYLFGYLDEADKEISVNSILDFHLAHRTNPEFVFEPKKNTNPLIWKYLSNSNLLY | 0.398
15 | HMEDPLGDLIGRIAAATGRPVQDIVAEVHRVVTDHFDGNLRVEAAAVILARKYGVAFEDKLSALQRSV | 0.0325
16 | HMEDSAKRHQIMDGARRVFMDLGFDGASMNEIARAAGVSKGTLYVYFTDKNRLFEAIVEQESL | -1.27
17 | HMEDSEYDRLLAEIDEGIRKAIETLEPVELSPQNARVRRIQHQIIEKYQLHSDSVGEEPYRRVRIL | -0.596
18 | HMEDSHIYPVSFNGKMRFKLELPVSMNKKEIEEVVLQHEDAQKWLNGQNPKKVIVVPKRIINIV | 0.0193
19 | HMEDTVNVPIQINGKLRHVIQVQIGTSEEEIQKIALSEEQVKKFTDGHEILKVMVPKGKLVSIVI | -1.04
20 | HMEDVLVTQIIQLKHVDANDMKTLFTPLLSRGSSQLLAYPQSNVLIITDTRSNIKKITEILDIIDKS | -3.02
21 | HMEDVRSLTGPEKAAIILLSLGEEHGQGVWRMFDDEEVKEVSQIMANLGTISASVVEKLLVEFVSQMST | -0.96
22 | HMEDYYKILGVQSNSNPDDIKKAYRKLSLKHHPDRGGDASEFKKINEAYQTLGTPEKRKMYDMQQNN | -0.169
23 | HMEEEPALLRDLLAKTLEFGLIPQLSHHPALADRTQQLASAVRAAGSASALRNAAASLKSLWIDVDQ | -0.0158
24 | HMEEFDLNAYITKINSAATLNALKQAYAEANSAALSVKDKDAQRKIIVEKDKRKAELIQETAG | 0.453
25 | HMEEIALTDILNRFLSSLSLEQRKIFMRRYWYLSPIKEIATEYGMSESKIKMSLFRSRNELKKLLEKEGI | -0.499
26 | HMEEINTAPVFKNIIEIAEYAKTKFTTVEEIPKMIEFIETANSKLDNPHDEESVNELINALSTNIRKNV | 0.347

Row | Sequence | soluble fraction (log2)
27 | HMEEITLIAEDEGLRLDTWLTDKLKDYSRSYIQKLMEDELVLVNGKARKANYRIKTGDEIHVSIPEPE | -0.0663
28 | HMEELLVAVKADGSIWADGRPITPDGLASFIDSKPADAVLNLAVDKKAPFAAFVKVVDVAKEKKSGRFVIR | -0.41
29 | HMEELPIIVAQRFLNIFRQLHIFSDERREAFNKMLLELPPEVKSIFQSLPGGTPLQEYMEDLEQKSK | -0.721
30 | HMEELTPLQKYVFDYESDISDEVDMRAIKGLENANDVYDYYANVRGWEGDPDLEDDLDNIYRQVKARFA | 0.0255
31 | HMEEMTIRQKRTMIFFIEATKHILQEDGYDHLTIREIAQRAGYNAATLYHYFRDLDELIIYGSVG | -0.439
32 | HMEEPEELYRVKILIYNLLVRNGPGILYTRLRRADYPGEYGIYEEKNGYGKISATLSEWISLNTEYVQRLD | -3.72
33 | HMEEVYVPDIRDKSISDAKKILSQMGLKYRIEGEGYDDSTVIKDQTPKPGALLAKDSVVIAYINE | 0.0833
34 | HMEEYLENLTQSKLLHMLDQLSPAYKTVFTLFVLDELSHEEISKMLNISIGTSKSNLFRARKVMRVLMESE | -0.273
35 | HMEFDIDAAIHAALEPQAVMRAWFGHEGREYPEDFGVVFFRGWESFTHQEKVEAVRDAKKVLDRAVR | -1.18
36 | HMEFDSLINYEVKKKETLFSISKKFKIEINDLLSFNTELKNNKLKKNSIIIIPLKKKIVESQNFEKQKIID | -1.49
37 | HMEFENIEQRKQYWSDLYRELKAGQDAYAKELKKGTEGYTQDELDILKEFTDEAKKQMEAAGVEATDEFAS | -0.0427
38 | HMEFLLAIQPFVLLTDHANLTFLREQTDSMMKRIQINISGFEIEFRYVPGLTNILPDKMSRV | 0.146
39 | HMEFQEQLYRLRKQAGLSQEELSHIIGVSRQAVQKWEAGSARPDLDNLIALASHFKLSLDQLVGLT | -1.01
40 | HMEFQSIGGKIRIGREREHLTQAELAQKLSVTRQAVSNWERDKTLPDIYMIREIAEIFGLTLDEFMEGAKK | -1.02
41 | HMEGDAFAFTGDIQKDLLSITAVHPMRREAVDALIAKAGASWAIVEKLLAHGELTEAKHDGHLFYLRKF | -1.19
42 | HMEGIAEILPASVRQKYGLIGLYDALRGLHFPGNMEEIKAARQRLAFEDTLMFSLTLSMMQYS | -0.146
43 | HMEGIAYDINTAPEHIDLKAEDMMATFNIGKTALWRWVKQKILPPPYEYRSQAAHWTIGQIRDWKTA | -0.125
44 | HMEGLDDKTKIILFAGDKKEQEYSLADLKSKLNITENLTESELIKLLEKQGYVLDVNANNEFMFKKD | -0.012
45 | HMEGNFFADIRQELMRELDQEAEWSDVQILEKIDDLVLLRTRRSSLTVNEKEQLRKELFYSVRK | -0.345
46 | HMEGRTVMATTAVNVRSGPGTSYKILGVLYPGHTAQQIGNTRYGWAQVTWKGHTAYIAARYLRDS | -2.71
47 | HMEGSLQEDKVKEYQDRFKEELSNDLNTANSITVLYDLIKDDTLNGTTKRYLIEDFDKILSLDLIKE | 0.167
48 | HMEGSVTVMVNGESVTMTGKQNYIFVDVFDWYSFDLSAGKGRAIATLVNGKEAEFSQPLANGDNIELYWKE | -2.15
49 | HMEGTAAAVALKGLMEQSGVDLREVMAAVESRGYYPKGTPFENYDPAFVSGVLVGAWDQVYKMILDQRPIP | -0.692
50 | HMEGVSPQTVQEHIRRFIAAEDPASPLSDEALREALGNLGINASRRTVAKYRGEMGIPSSAQRKR | -0.0573
51 | HMEGVSSESVKEMLKSIIDGEDPHNPVSDQRITDILNSRGINISRRTVAKYRDELGIASSSRRKRY | 0.298
52 | HMEGYLYLSESQNELILKNLKTPLKYNLYNASGKLIKKGNIKNTLDISELPKGVYIFTSSDNSFSKKFLKT | -1.55

Row | Sequence | soluble fraction (log2)
53 | HMEHAETDTRERILVVAERLFRQLGYQKTTVADIAKELRMSPANVYRFFDSKKSIHEGVARTL | -0.896
54 | HMEHETTQLELNAPGQRLDAALALALPDTSRAQIQQWIKQGLVTDQAGTALLQASLKLKSPLNVVLQRPI | -0.215
55 | HMEHIDVSGRAFDVSVSRLKRARRLTMRIDTHKQLVKISAPLHVESSTIRAFLARNQNWLEQQVEKR | -0.839
56 | HMEHLTATERHLVAYLEAHLGQVPSLSITKLSQEANVSTASIVRTMKKLGYDGFTAFKHAIKQQLR | -2.67
57 | HMEHTPHGVALLRTLMDQYGLKAADLANELGSKSNVSNILNGRRALTVSHIKMLAERFNLPADAFI | -1.33
58 | HMEIALNDKQILLFSNKLVHEPSFASKYSKVGESYDDFAIRISENLTIPDKVQEYLPYLEKVGFNI | -0.622
59 | HMEIDDPWLILGINAGSSIEIAQKAWKDLASQNHPDKLIANGVPKELLGMANEKLAIINGAYDKILKAHKI | -0.295
60 | HMEIETPEIRAIHDLLELLANKAKKPEQEQFVQAHPEVQWAKVEANKNGTFAVGKVKAYLKTLQA | -0.39
61 | HMEIGNVIAKLRVSNGLNQREFAKKLEVSNGAVAMWETNKRQPDLEMIKKISNLFDVPTDYILGAGTFQ | -0.838
62 | HMEIIFVEHKVRPGESVWLIARKYKVKKNHILAVNNLSEKSIIRPKQILKIPTSGYDQYKKSVE | -3.79
63 | HMEIIMIVITKPSITDERIAEIVAVIERNGGVQAHVSKGTDRTVIGIIGKAEPTLAEHLRQMKGVENVIKI | -1.33
64 | HMEIPMRDKLKTYIDYLFAGAPQTAATAETKAEILQNTLDKYDDLIAEGKTPEAAYSLAVSGIGDLGDF | -0.179
65 | HMEIPTEEILKQKLYYSISEVASWFKVNTSLLRYWENEFDILQPRKTRKGDRLFRVEDIKNLQLIYLL | 0.26
66 | HMEITGKYKAKEDIKLKVIPLISSLDLQDIKQNTELEVKDTMNNWAYVTVQEKQGWVVLEKIEKVE | -0.631
67 | HMEITTLTGVLGAGRLDSALAAALPQYSRARIQALISDAALRINGQVVADAGSKKMSGQTFELNIPAPVP | -0.594
68 | HMEKDEYIFVDIDGAVFNPGVYKLIAGSRVIDAINLAGGLKEKAFTQNLNKARKLVDGEKIYIYLEGDEE | -0.552
69 | HMEKDRDKRIRKRVLTALKRNDKKMTDKAFALLTSRIRDESILDQEVLKLIGYVGDRTTIDSKDINIVVAE | -0.392
70 | HMEKEEELNSIRPDLDGNDIMEILGVPAGPKVGKAYNYLLNVRLDEGPLSRAEAISRLEAWWENQ | -0.168
71 | HMEKELVSDFASRISTARSSKGWNHAELGKRMAETVNVIKSAESGKPPTDSVVKKLERVLGITLMEV | -0.0517
72 | HMEKEYMKNVVGMEYRQARVLLGDMGLELAFQPVYETSDKYPTDVVVSTEPAADQPLTKGQTVILHIST | -0.332
73 | HMEKGNEEALEQAREAILAVQSGEKYVDLDPANAAIRRKQHALAQASDLVSQSYGKDPNRYVRIFR | 0.233
74 | HMEKINLLVENNDNYRLDKIIALNMEELSRTQIQEMIGQGLVLVNGKVEKASYKTKLNDQIEITIED | -0.0065
75 | HMEKKKVPEVAGQDEAAARNVMTNSGFVVDVEQKEDDNVPAGKVITTAPAGGVEVVEGTKIILYVSKGSN | -0.052
76 | HMEKKPYGEMHNVMLTDEELEKLRHDYPAHFAEYIQRLSLHIDAKGARYKSHYAVIRKWLIADGVKA | -2.36
77 | HMEKLIRIKRLIKQLNEYRDSYYNEARPVVSDAAYDKLFDELSELEKETGVVYANSPTQTVG | 0.0942
